From US20220125824A1

Target: mCherry-MazF (E. coli MazF ribonuclease fused to the C terminus of mCherry) (E. coli) (UniProt P0AE70)
Assay: cell-based or functional assay

UniProt P0AE70, sequence (P0AE70 whole entry, the tested form may be a part): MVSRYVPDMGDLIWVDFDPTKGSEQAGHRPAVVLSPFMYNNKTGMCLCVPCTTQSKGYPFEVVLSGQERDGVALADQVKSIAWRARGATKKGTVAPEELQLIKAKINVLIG

With “E. coli antitoxin MazE (from UniProt P0AE72 1-82)” the mortality (MTT assay) of lung cancer cells co-infected with MazF and MazE viruses at a 1:0.5 MOI ratio was 36% and the yield of MazF-encoding adenovirus in HEK293 packaging cells that constitutively express MazE, compared with parental HEK293 cells (orders of magnitude) was 2.
